Assay: soluble on expression in E. coli; label from the status in PepcDB or PDB records

With “MGSDKIHHHHHHMSTRIPTEESLDTQQKDFLKKLKDNHYVGQNIWIKGFPGSGKSVLLVYAIKYLLNNEATQNAKILLVVFTHSLIELCKAELAELNITNVKIVTMYEFLKTKRKYDYIFCDEVQDLTSRILIKMKDQTRYMLIVAGDSNQSIYSKDPQYQEAVVIPEKITQLIDSEDWGLLYVYRLTRSIITAIQKMIPSMNIFSAKRYMLKRDTQIRLCKAEFVDQEVEYIMREARKFVNRNQSCAILFPTKDKVLEFCDTVLQLEHKPVWEKWIDQYYEPYFKRLNDHLKENQVPIECVVNSYGSLLAAENDKRIVIMTYHGVKGLDFDNVFIPFANTDLYIPGDSNITQKLFMVAMSRSRNNLYITYTGMPLSYVSLFSSDSTICANISISNELHPNLSDDINIDF” as the sequence, how does the “soluble on expression in E. coli” value read?
The value was “not soluble”.

For “MSLLRKDATEERLTGRYFTPKDLASYIIDWVIQDNNINKILEPSCGNGVFLECLGERRLEDGRNITAIEIDEDVSFEASMQIDNSLRFNNCYDYQRALRNDGDIVNNGIVIINDDFYKVYEQELQGQRFQAIVGNPPYIRYQYLSEQQREEQSKILIRNNMRPNKLINAWVSFVVACAEILDGNGKMGLVIPAELLQVAYAEDLRRFIMRTFQRITIVTFRELVFPNVQQEVVLLLVEKEILHTREGHHHHHH”, which “soluble on expression in E. coli” value is on record?
Its value is “soluble”.

Which “soluble on expression in E. coli” value does the source give for “SNAMFHYTVDVSTGMNETIERLEESLKQEGFGVLWQFSVTEKLQEKGLDFSTPMVILEVCNPQEAARVLNENLLVGYFLPCKLVVYQENGTTKIGMPKPTMLVGMMNDPALKEIAADIEKRLAACLDRCR” here?
Its value is “soluble”.

With “MEIPPTNYPASRAALVAQNYINYQQGTPHRVFEVQKVKQASMEDIPGRGHKYRLKFAVEEIIQKQVKVNCTAEVLYPSTGQETAPEVNFTFEGETGKNPDEEDNTFYQRLKSMKEPLEAQNIPDNFGNVSPEMTLVLHLAWVACGYIIWQNSTEDTWYKMVKIQTVKQVQRNDDFIELDYTILLHNIASQEIIPWQMQVLWHPQYGTKVKHNSRLPKEVQLE” as the sequence, how does the “soluble on expression in E. coli” value read?
Its value is “soluble”.

Which “soluble on expression in E. coli” value does the source give for “MSLNLNVLEIKSFVPAQDFTTSKQFYLSLGFELITEFGDVAYLRLGQCAFLLQNTHQRPHQGNTMMHLLVEDAQSWFDHVKTLQLEERFESKVTDLITQPWGMLEFCLVDPSDVLWRIGQRIGEGHHHHTTDPNSSSVDKLAAALEHHHHHH” here?
Its value is “soluble”.

Which “soluble on expression in E. coli” value does the source give for “PMVALVGARNASSLGLRMARKLAAALGEAGYVVVSGLARGIDAEAHAAALGQGTVAVQAGGVDVIYPAENAGLAAEIAARGCRISEQPMGLVPQARHFPLRNRIVSGLARAVVVVEAAARSGSLITAREALDQGREVLAVPGHPFDPRAAGGNQLIREGATLVRHAADVIEAIGTAHPA” here?
Its value is “not soluble”.

For “MNKTIIAERFSKAISTYPREANVQRQIANKMIRLLQKHIPSPCPKVIEFGCGTGIYSRMLLRTLRPEELLLNDLCPEMRYCCEDLLREKQVSFLSGDAETISFPDKSTLITSCSALQWFDSPEEFFKRCNTLLHSQGYFAFSTFGKKNMKEIRELTGKGLPYRSREELEAALSLHFDILYSEEELIPLSFEDPMKVLYHLKQTGVNGLSAQSSLYPKHEKQTWTRRDLQHFCERYTQEFTQGTSVSLTYHPIYIIAKKKKV”, which “soluble on expression in E. coli” value is on record?
Its value is “soluble”.

For “MGSDKIHHHHHHMTTSEAPQCPYHLKQSLTRRPTAGARPSAAIEVDGNGIYRIHAFQAARDILRSNSVRQAGFMSESARGVRGLGNPPVLFEEGEKHHEMRRSTARYFTPTQVAEYQPMIAALADDLIAELIRRGEMNLDDLSLRLAVNVAARVVGLTSSRVPGLERRVISFVESGGDSEPSSTQPRKSRLESLRQQAKMALFYFLDVKPAIAARRQQRQDDLISHLLDREYNDLEILTECLTYGTAGMVTTREFISVAAWHLLRNPGLRAEYVHGTEPERHAILHEILRLEPVVTMLYRRAEGELTVAGQTIPAGSLLALHLQEANTDPAVAGADAEQLCPGRTLPRGVAPQVLAFGDGHHRCPGAFLAIKESDVFLRRLLVWQDLEIVSEPEVNSNEVVKGYELRGFRVRLGRAARP”, which “soluble on expression in E. coli” value is on record?
The value was “not soluble”.

For “MGSDKIHHHHHHMVRVRFAPSPTGFLHVGGARTALFNFLFARKEKGKFILRIEDTDLERSEREYEEKLMESLRWLGLLWDEGPDVGGDHGPYRQSERVEIYREHAERLVKEGKAYYVYAYPEEIEEMREKLLSEGKAPHYSQEMFEKFDTPERRREYEEKGLRPAVFFKMPRKDYVLNDVVKGEVVFKTGAIGDFVIMRSNGLPTYNFACVVDDMLMEITHVIRGDDHLSNTLRQLALYEAFEKAPPVFAHVSTILGPDGKKLSKRHGATSVEAFRDMGYLPEALVNYLALLGWSHPEGKELLTLEELISSFSLDRLSPNPAIFDPQKLKWMNGYYLRNMPIEKLAELAKPFFEKAGIKIIDEEYFKKVLEITKERVEVLSEFPEESRFFFEDPAPVEIPEEMKEVFSQLKEELQNVRWTMEEITPVFKKVLKQHGVKPKEFYMTLRRVLTGREEGPELVNIIPLLGKEIFLRRIERSLGG”, which “soluble on expression in E. coli” value is on record?
Its value is “soluble”.

For “DTGTISTEEFYNFDNWKGFGYELFEDWSRWVYDWLPDGWNLWKELDRNRSGQYHIYDPLALDLDGDGIETVAAKGFSGSLFDHNGNGIRTATGWVSADDGLLVRDLNGNGIIDNGAELFGDNTKLADGSFAKHGYAALAELDSNGDNIINAADAAFQSLRVWQDLNQDGISQANELRTLEELGIQSLDLAYKDVNKNLGNGNTLAQQGSYTKTDGTTAKMGDLLLAADNLHSRFTNKMLSISHVRENTISPFVLGCLNK”, which “soluble on expression in E. coli” value is on record?
The value was “not soluble”.

With “MSLSEFLTKNEEKIEKIVKFHRSFDEMSQTQRQAWLEEMGDINIEHFFKANQRVFDEDGPRERSIPRRDFFLDVIKNRVKSDPLLQPKGHPVTNYLQENIHIRKLCEKITDTFCVEEIASYDAALNLLYELSKIHTHYLRKEDQLFPYLEKHNFTYPSTGMWKFQDEIRANLKMVIKAFEKNELNKEMQTLMRDVVKDIFDMTTREEKMLLPTSVKLLSNEEWIKMRKEEQEIGYVFIQSPPMWPEDESHKPDMASSLGSIFLQEGSLSQEQLNLFFSHLPFDVTFVDENDRVAFFNKGSERTFLRSAGVIGREVKFCHPPKSVDAVLKILEAFKAGTKESAEFWITFGGRLIHIRYFALRDSEKNYKGVVEITQDITDIKNIEGERRLLDWEEGHHHHHH” as the sequence, how does the “soluble on expression in E. coli” value read?
The value was “soluble”.

For “MKALRGMISEKGGWNLTVNNDNNTVVSSGGALDLSSGSKNLKIVKDGKKNNVTFDVARDLTLKSIKLDGVTLNETGLFIANGPQITASGINAGSQKITGVAEGTDANDAVNFGQLKKIETEVKEQVAASGFVKQDSDTKYLTIGKDTDGDTINIANNKSDKRT”, which “soluble on expression in E. coli” value is on record?
Its value is “soluble”.

Which “soluble on expression in E. coli” value does the source give for “MSLKKQRIVVKIGSSSLTNSKGSIDEAKIREHVQAISVLKKAGHEMILITSGAVAAGFSSLGYPSRPVTIKGKQAAAAVGQTLLMQQYMNQFKQYSLTPGQILLTRNDFSKRERYRNAYATIMELLERGVIPIINENDSTSVEELTFGDNDMLSALVSGLIHADQLMILTDINGLYDANPNENPEAKRFDYLPEITPELLGYAGSAGSKVGTGGMKSKLLATQTALSLGVKVFIGTGSGEQKLADILDGRGDGTYIGDKELSSVNNTRQWIQFHSPISGEIIIDAGAEEAMIHNGSSLLPAGVVGVNGSFPKGAVVEVRGPGGVIGKGQTHYSSEEIMEAKGKRSDELDFEKTFEVIHEGHHHHHH” here?
Its value is “soluble”.

With “MGSDKIHHHHHHMDFIEVYPNAIPDELCDRLIETVNTHPGVIDGITGHGVDLEKKISRDITMDNFQELLPLRNELLNYTLKHSAQYFEKYALGLMGAVAVTLADEQGKPQTLTPDNFDTLGRHRVQPLVQYLYRSGTINIQHYQQGKGGYPHWHSEQFPQMGHNEALHRVVLYMFYLNDVEEGGETEFFYQQRKIKPKKGTMVIAPAGFTHSHRGNMPISGDKYIATSWVMFNRAEKLYAPVG” as the sequence, how does the “soluble on expression in E. coli” value read?
The value was “not soluble”.

For “MGSDKIHHHHHHMIIKNRFTDEIEDAYLDYGSPPPEWQTVQNAAESLRSMPTDQLQSSAKSVFDYIRQNMDAILPRISRTTGKPMRYLRLEVDRSLSETGKIVVMDEPMFHDIPQYSVVYPNYQDPVSSLIVPSIFFLLNRVPVIVVPDRYAFLVPSLIYKAFASSGLPSGSFSISNGGIPEGFPSTRYAVSYSTDAMPEAAPGSGTLHADRGGPSMAVVWKDADVDFAAQNLVDSVIERHSIFLRSIVVHDEIFEYFVNRLKDLLPSIVAGDPEDLSTQLGPCASDIDLIRSLNMIAEARRARSIIYSKGPQGNIITPTIINGEITDMDDMVYTPVYILHHASSMEEVFELVSKVGPEALALYSSDSMLFRMVLSRTSAKYIGLNSYPEISYKPPISIPRRGLYL”, which “soluble on expression in E. coli” value is on record?
Its value is “not soluble”.

For “MLRSSLLPFSYLYEKIINFRNTLYDKGFLKIKKLPVPVISVGNLSVGGSGKTSFVMYLADLLKDKRVCILSRGYKRKSKGTLIVSEYGNLKVSWEEAGDEPYLMAKLLPHVSVVASEDRYKGGLLALEKLSPEVFILDDGFQHRKLHRDLNILLLKKKDLKDRLLPAGNLREPLKEIRRADALVLTYQEVEPFEFFTGKPTFKMFREFCCLLNSDFEEVPFDILKEREVIAFSGLGDNGQFRKVLKNLGIKVKEFMSFPDHYDYSDFTPEEGEIYLTTPKDLIKLQGYENVFALNFKVKLEREEKLKKLIYRIFYLEHHHHHH”, which “soluble on expression in E. coli” value is on record?
Its value is “soluble”.

With “MRTFDLTAALGDRANQPEISRLLVAQLMTSNNEDTRKLRRAQEREQTQELNELAHRLAGMASLIHAHAVERACHQLEIACGESSVRKLADAVDDLVTALGELQCELHDWMTMTAPQGTAKS” as the sequence, how does the “soluble on expression in E. coli” value read?
Its value is “not soluble”.

For “GMSQTTVVNGVNVDQLMATIEQIKAKPEIAQFKFRATNQWMGGTHNQATIKDFYGACAEDDTRKPMVFDLDEPPVLLGENRGANPVEYLLVALSGCLTTSLVAHAAARGIALRGVKSRYEGDIDLRGFLGLSEEVPVGYREIRVFFSIDADLTDGQKEELIRMAQKYSPVYNTVAKPVPVAVLLDRG”, which “soluble on expression in E. coli” value is on record?
The value was “soluble”.

For “MVLDQGDVISRINEGAISSSLEDLAKETGKEVRFVTIHRLDYGETPESFAQALFEKWFPSKEAQANQILLVLDTVTNGTAIITGDEVKPLLTDTIANSVAEETLAAPLRDGNKYNQAFLDASDRLVAVLSGQPDPGPPQIVDKLEHHHHHH”, which “soluble on expression in E. coli” value is on record?
The value was “soluble”.

For “TGAITVGNKNNDKLTLWTTPAPSPNCRLNAEKDAKLTLVLTKCGSQILATVSVLAVKGSLAPISGTVQSAHLIIRFDENGVLLNNSFLDPEYWNFRNGDLTEGTAYTNAVGFMPNLSAYPKSHGKTAKSNIVSQVYLNGDKTKPVTLTITLNGTQETGDTTPSAYSMSFSWDWSGHNYINEIFATSSYTFSYIAQE”, which “soluble on expression in E. coli” value is on record?
The value was “soluble”.

With “PRYTEVTEEQIIVKQIWGQLVFDRKEMEIVPIGKDDLKSSLRTFGNGGLFGYAGYFRNKKLGKYRMYVTRLKDLSLLTDRNGKKTVINLRQV” as the sequence, how does the “soluble on expression in E. coli” value read?
Its value is “not soluble”.

For “MLDINLFREEKGNNPEIIRESQRRRFASVEIVDEIIKLDKEWRQRQFEVDSFRKEFNKLNKQVAQLKIKKEDASEIIQQTEKNKQDSTAKEAEVREAYAALKAKLEQVGNLVHDSVPVDKDEANNLVIKLWGEKRFSTPGLKLKNHVDLVELLGIADTKRGAEIAGARGFFLKGDGLMLNQALINFGLTFLKKRGFTGLQPPFFMRKDVMAKCAQLAQFDEELYKVTGEGDDKYLIATAEQPLCAYHIDEWIHPTELPLRYAGYSSCFRKEAGSHGRDTLGIFRVHQFEKIEQFCITGPNENASWEMLDEMMKNSEDFYQALKLPYQIVSIVSGALNDAAAKKYDLEAWFPSSETFRELVSCSNCTDYQARRLEIRYGQKKSNEQTKQYVHMLNSTLTATERTICCILENYQREDGVDIPEVLQPFMGGETFLPFKAKPVVADTKGKKSKA”, which “soluble on expression in E. coli” value is on record?
The value was “soluble”.

— the DeepSol protein solubility set
